Kd data for five molecules are collected here from patent US5849890, “High affinity oligonucleotide ligands to chorionic gonadotropin hormone and related glycoprotein hormones” (NeXstar Pharmaceuticals, Inc.).

Usually Kd stands for the concentration at which binding is half-saturated. Low readings indicate higher affinity, high ones lower affinity.

In one data set the target is hCG beta-subunit (Homo sapiens, UniProt P0DN86 P0DN86:21-165). As to the kind of experiment: filter. To be noted: tags: Calbiochem or Vitro Diagnostics; label: 32P. The protocol: (§1) Internally-labeled RNA transcripts were prepared by including [α-^32P]ATP in T7 RNA polymerase transcription reactions. Full-length transcripts were purified on 8% denaturing polyacrylamide gels to ensure size homogeneity. Gel-purified RNA was diluted to a concentration of ~5 nM in TEM buffer, heated to 80° C. then chilled on ice to facilitate secondary structure formation. RNA concentrations were kept lower than 100 pM in binding reactions. Briefly, equal amounts of RNA were incubated with varying amounts of hormone in 50 μL of TEM buffer for 10 minutes at 37° C. RNA-protein mixtures were passed through pre-wet nitrocellulose filters (0.2μ), and the filters were immediately washed with 5 mL of binding buffer. Radioactivity retained on filters was determined by liquid scintillation counting. The quantities of RNA bound to filters in the absence of protein was determined and used for background correction. The percentage of input RNA retained on each filter was plotted against the corresponding log protein concentration. The nonlinear least square method was used to obtain the dissociation constant (K_d) (Jellinek et al. (1993) Proc. Natl. Acad. Sci. U.S.A. 90:11227–11231; Irvine et al. (1991) J. Mol. Biol. 222:739–761).
(§2) By incorporating a counterselection step, SELEX allowed the isolation of hCG-specific RNA ligands (Example 5, infra).

For data set [1], the target named is glycoprotein hormone common alpha-subunit (UniProt P01215 P01215:25-116). The experiment in a line: filter. To be noted: tags: UCB-bioproducts; label: 32P. The procedure:
as §1, §2

The target of data set [2] is T1, human chorionic gonadotropin (hCG) heterodimer (Homo sapiens, UniProt P01215;P0DN86 P01215:25-116,P0DN86:21-165). The experiment in a line: filter; Mg, pH 6.5; Kd rises >25-fold at pH 7.0. The conditions noted are these: tags: Calbiochem or Vitro Diagnostics (14,000 IU/mg); chain copies: alpha/beta heterodimer (stated); label: 32P.
Data set [3] has as its target T2, human luteinizing hormone (hLH) (Homo sapiens, UniProt P01215;P01229 P01215:25-116,P01229:21-141). As to the kind of experiment: filter; Mg, pH 6.5; <2-fold change at pH 7.0. To be noted: tags: Becton Dickinson (2'-NH2 work); Scripps/Vitro Diagnostics (2'-F work); chain copies: alpha/beta heterodimer (inferred); label: 32P.
The target of data set [4] is T1, human chorionic gonadotropin (hCG) …. As to the kind of experiment: filter; TEM or TESM, 2.1 mM Mg, pH 6.5, 37 C. To be noted: tags: Calbiochem or Vitro Diagnostics (14,000 IU/mg); chain copies: alpha/beta heterodimer (stated); label: 32P; G4 (RNase T1 protection in K+). The protocol:
as §1, §2

Data set [5] has as its target T2, human luteinizing hormone (hLH). As to the kind of experiment: filter; Mg, pH 6.5. To be noted: tags: Becton Dickinson (2'-NH2 work); Scripps/Vitro Diagnostics (2'-F work); chain copies: alpha/beta heterodimer (inferred); label: 32P; G4 (RNase T1 protection in K+). The procedure: as §1, §2
Data set [6] deals with human thyroid stimulating hormone (hTSH) (Homo sapiens, UniProt P01215;P01222 P01215:25-116,P01222:21-132). The experiment in a line: filter; Mg, pH 6.5. The conditions noted are these: tags: Becton Dickinson; chain copies: alpha/beta heterodimer (inferred); label: 32P; G4 (RNase T1 protection in K+). The protocol:
as §1, §2

Data set [7] has as its target human follicle stimulating hormone (hFSH) (Homo sapiens, UniProt P01215;P01225 P01215:25-116,P01225:19-129). As to the kind of experiment: filter; Mg, pH 6.5. The conditions noted are these: tags: Becton Dickinson; chain copies: alpha/beta heterodimer (inferred); label: 32P; G4 (RNase T1 protection in K+). The protocol:
as §1, §2

Data set [8] has as its target T1, human chorionic gonadotropin (hCG) …. The experiment in a line: filter; +/- 3 nM (Table 5). The conditions noted are these: tags: Calbiochem or Vitro Diagnostics (14,000 IU/mg); chain copies: alpha/beta heterodimer (stated); label: 32P; G4 (RNase T1 protection in K+).
Data set [9] shares this target. The experiment in a line: filter. To be noted: tags: Calbiochem or Vitro Diagnostics (14,000 IU/mg); chain copies: alpha/beta heterodimer (stated); label: 32P; two hairpins.
Data set [10] has the same target. The experiment in a line: filter; 17.2% bound at 100 nM. The conditions noted are these: tags: Calbiochem or Vitro Diagnostics (14,000 IU/mg); chain copies: alpha/beta heterodimer (stated); label: 32P; hairpin.

T1 sequence (P01215 25-116, chain 1 of 2, other chains not shown): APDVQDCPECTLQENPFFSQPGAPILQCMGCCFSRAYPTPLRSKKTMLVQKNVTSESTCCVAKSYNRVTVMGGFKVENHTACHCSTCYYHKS
T2 sequence (P01215 25-116, chain 1 of 2): as the sequence (P01215 25-116, chain 1 of 2, other chains not shown) above
T2 sequence (P01229 21-141, chain 2 of 2): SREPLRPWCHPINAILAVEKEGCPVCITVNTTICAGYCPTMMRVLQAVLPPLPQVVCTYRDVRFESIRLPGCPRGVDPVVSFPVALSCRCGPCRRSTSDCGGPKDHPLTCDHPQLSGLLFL
Sequence of human follicle stimulating hormone (hFSH) (P01215 25-116, chain 1 of 2): as the sequence (P01215 25-116, chain 1 of 2, other chains not shown) above
Sequence of human follicle stimulating hormone (hFSH) (P01225 19-129, chain 2 of 2): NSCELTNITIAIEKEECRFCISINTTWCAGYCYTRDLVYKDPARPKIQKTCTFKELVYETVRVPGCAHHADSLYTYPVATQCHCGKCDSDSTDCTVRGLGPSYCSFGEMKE
Sequence of glycoprotein hormone common alpha-subunit (P01215 25-116, one chain of several): as the sequence (P01215 25-116, chain 1 of 2, other chains not shown) above
Sequence of human thyroid stimulating hormone (hTSH) (P01215 25-116, chain 1 of 2): as the sequence (P01215 25-116, chain 1 of 2, other chains not shown) above
Sequence of human thyroid stimulating hormone (hTSH) (P01222 21-132, chain 2 of 2): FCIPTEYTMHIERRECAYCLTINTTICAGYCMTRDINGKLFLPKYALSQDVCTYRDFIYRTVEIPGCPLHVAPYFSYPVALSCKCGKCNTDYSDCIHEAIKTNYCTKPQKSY

B1: H-42 (ssRNA)
RNA: GGGAGGACGAUGCGGACAAGGGCCUGAGUGUGGAGGGCACGUGGAGGGGACUGGCCAGACGACUCGCCCGA
modifications: 2'-NH2 all pyrimidines
As to B1, the Kd in the data set with hCG beta-subunit is approximately 200 nM; in data set [1] it was approximately 1400 nM; in data set [2], 6.2 nM; in data set [3], 15 nM.

B2: H-30 (ssRNA)
RNA: GGGAGGACGAUGCGGUACUGUAAAACAAUCUGGAGGAGGGUCUAGGGGAUGGUGGCAGACGACUCGCCCGA
modifications: 2'-NH2 all pyrimidines
As to B2, the Kd in data set [4] was 20 nM; in [5], 51 nM; in [6] it was approximately 1600 nM; in [7] it was approximately 1700 nM.

B3: H-17 (ssRNA)
RNA: GGGAGGACGAUGCGGAGGGAACGCGGAGGGGUGUGUCCCCCAGACUACAAGGCGGCAGACGACUCGCCCGA
modifications: 2'-NH2 all pyrimidines
With B3, binding in data set [8] was characterised by a dissociation constant (Kd) of 7.5 nM.

B4: ligand 25/9 dimer (ssRNA)
RNA: GGGAGACAAGAAUAAACGCUCAACAGUGAUUGAACGAUCCUUUCAGCUGGUGGGUAUGGUCCCGGAGUCUCGUUGGUCGUUGAACGAUCCUUCGACAGGAGGCUCA
modifications: 2'-F all pyrimidines
In the case of B4, the dissociation constant Kd in [9] was approximately 200 nM.

B5: 2nd generation ligand 18 (ssRNA)
RNA: GGGAGGACGAUGCGGCAUUCGCUGAUUCUUGAACGAUCCUUGAUGAUGUGGAUGCAGACGACUCGCCCGA
modifications: 2'-F all pyrimidines
In turn, B5 yielded a Kd in data set [10] of 150 nM.
